Values quoted from earlier work as cited in PMC5481609.
pKd: −log10 of the molar value.

Molecular target: IL-23 p19 (Homo sapiens) (UniProt Q9NPF7)
Sequence (Q9NPF7 20-189, chain 1 of 2): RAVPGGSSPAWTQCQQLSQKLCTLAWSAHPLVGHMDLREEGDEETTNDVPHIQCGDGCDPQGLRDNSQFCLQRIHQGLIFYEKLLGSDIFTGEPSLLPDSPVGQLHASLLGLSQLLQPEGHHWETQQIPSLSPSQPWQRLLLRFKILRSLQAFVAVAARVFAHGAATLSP
Sequence (P29460 23-328, chain 2 of 2, further chain): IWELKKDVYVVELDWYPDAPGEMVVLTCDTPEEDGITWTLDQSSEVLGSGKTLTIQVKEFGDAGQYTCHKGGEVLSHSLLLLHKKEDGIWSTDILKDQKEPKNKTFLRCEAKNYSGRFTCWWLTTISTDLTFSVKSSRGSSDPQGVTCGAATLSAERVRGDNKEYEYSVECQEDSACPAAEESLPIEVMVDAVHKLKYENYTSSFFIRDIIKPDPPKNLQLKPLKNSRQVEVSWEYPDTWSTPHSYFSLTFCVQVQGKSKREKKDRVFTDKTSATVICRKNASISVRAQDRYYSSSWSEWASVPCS

Substance: brazikumab
- pKd: 9.86
